In patent US20240084009A1 (HARPOON THERAPEUTICS, published 2024):

T1: cyno CD3e (Macaca fascicularis (cynomolgus monkey), UniProt Q95LI5)
T1 construct: not described; also called cynomolgus CD3ε; cynomolgus CD3
T1 sequence (CD3 epsilon, looked up): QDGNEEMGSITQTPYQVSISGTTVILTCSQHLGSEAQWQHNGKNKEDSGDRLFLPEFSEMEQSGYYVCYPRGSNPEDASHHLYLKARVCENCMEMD


Columns and labels:
biotinylated hu-CD3ε = biological target: T2, biotinylated hu-CD3ε (human, UniProt P07766 23-126, limits assumed, biotinylated (site not stated)); experiment: kinetic Kd determination of the expressed scFv, method not named
T2 construct: The construct is not described; also called biotin-CD3ε; human CD3ε
T2 sequence (P07766 23-126 limits assumed): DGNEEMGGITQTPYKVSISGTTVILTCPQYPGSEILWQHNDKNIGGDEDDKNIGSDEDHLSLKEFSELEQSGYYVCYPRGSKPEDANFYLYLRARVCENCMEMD

cyno CD3e = biological target: T1, cyno CD3e; experiment: as above

Kd (biotinylated hu-CD3ε) [nM] | koff (biotinylated hu-CD3ε) [s⁻¹] | kon (biotinylated hu-CD3ε) [M⁻¹ s⁻¹] | Kd (cyno CD3e) [nM] | koff (cyno CD3e) [s⁻¹] | kon (cyno CD3e) [M⁻¹ s⁻¹] | Binder
117 | 0.115 | 994000 | 115 | 0.111 | 964000 | Anti-CD3, clone 2G5 (scFv, Expressed in Expi293 from the pcDNA3.4 His6 vector) scFv: EVQLVESGGGLVQPGGSLKLSCAASGFTFNKYALNWVRQAPGKGLEWVARIRSKYNNYATEYADSVKDRFTISRDDSKNTAYLQMNNLKTEDTAVYYCVRHGNFGNSPISYWAYWGQGTLVTVSSGGGGSGGGGSGGGGSQTVVTQEPSLTVSPGGTVTLTCGSSTGAVTSGNYPNWVQQKPGQAPRGLIGGTNFLAPGTPERFSGSLLGGKAALTLSGVQPEDEAEYYCVLWYSNRWAFGGGTKLTVLHHHHHH
8 | 0.00502 | 704000 | 6.6 | 0.00438 | 712000 | Anti-CD3, clone 3F2 (scFv, Expressed in Expi293 from the pcDNA3.4 His6 vector) scFv: EVQLVESGGGLVQPGGSLKLSCAASGFTYNKYAMNWVRQAPGKGLEWVARIRSKYNNYATYYADEVKDRFTISRDDSKNTAYLQMNNLKTEDTAVYYCVRHGNFGNSPISYWAYWGQGTLVTVSSGGGGSGGGGSGGGGSQTVVTQEPSLTVSPGGTVTLTCGSSKGAVTSGNYPNWVQQKPGQAPRGLIGGTKELAPGTPARFSGSLLGGKAALTLSGVQPEDEAEYYCTLWYSNRWVFGGGTKLTVLHHHHHH
4.7 | 0.00248 | 522000 | 4.9 | 0.00222 | 456000 | Anti-CD3, clone 6A2 (scFv, Expressed in Expi293 from the pcDNA3.4 His6 vector) scFv: EVQLVESGGGLVQPGGSLKLSCAASGFMFNKYAMNWVRQAPGKGLEWVARIRSKSNNYATYYADSVKDRFTISRDDSKNTAYLQMNNLKTEDTAVYYCVRHGNFGNSYISYWATWGQGTLVTVSSGGGGSGGGGSGGGGSQTVVTQEPSLTVSPGGTVTLTCGSSFGAVTSGNYPNWVQQKPGQAPRGLIGGTKLLAPGTPARFSGSLLGGKAALTLSGVQPEDEAEYYCVLWYSNSWVFGGGTKLTVLHHHHHH
49.8 | 0.026 | 522000 | 46.8 | 0.0238 | 508000 | Anti-CD3, clone 10E4 (scFv, Expressed in Expi293 from the pcDNA3.4 His6 vector) scFv: EVQLVESGGGLVQPGGSLKLSCAASGFTFNKYPMNWVRQAPGKGLEWVARIRSKYNNYATYYADSVKDRFTISRDDSKNTAYLQMNNLKNEDTAVYYCVRHGNFNNSYISYWAYWGQGTLVTVSSGGGGSGGGGSGGGGSQTVVTQEPSLTVSPGGTVTLTCGSSTGAVTKGNYPNWVQQKPGQAPRGLIGGTKMLAPGTPARFSGSLLGGKAALTLSGVQPEDEAEYYCALWYSNRWVFGGGTKLTVLHHHHHH
